The values that follow come from patent US20110052564A1.

The target of experiment [1] is cdH5-0, crossbeta H5 (A/Vietnam/1203/04) after centrifugation (influenza virus H5N1 strain A/Vietnam/1203/04). Nature of the experiment: ELISA epitope scanning, immobilized H5 form; scaled. On the technique in general: ELISA stands for enzyme-linked immunosorbent assay.
For experiment [2], the target named is crossbeta H5-0 (dH5-0), H5 of H5N1 strain A/Vietnam/1203/04 stock as supplied by Protein Sciences (influenza virus H5N1 strain A/Vietnam/1203/04). Described as above.
Experiment [3] addresses fdH5-0, ultrafiltrated dH5-0 (H5 of A/Vietnam/1203/04) (influenza virus H5N1 strain A/Vietnam/1203/04). The description is as above.
In experiment [4] the target is misfolded dH5-I (H5 of A/Vietnam/1203/04, heat cycling at pH 7) (influenza virus H5N1 strain A/Vietnam/1203/04). Described as above.
Experiment [5] addresses misfolded dH5-II (H5 of A/Vietnam/1203/04, heat cycling at pH 2) (influenza virus H5N1 strain A/Vietnam/1203/04). Described as above.
Experiment [6] has as its target misfolded dH5-III (H5 of A/Vietnam/1203/04, prolonged incubation at 5 C below the melting temperature) (influenza virus H5N1 strain A/Vietnam/1203/04). Described as above.
Experiment [7] concerns the target non-treated H5 of H5N1 strain A/Vietnam/1203/04 (nH5), Protein Sciences (influenza virus H5N1 strain A/Vietnam/1203/04). Kind of experiment: ELISA, coated nH5 overlayed with 1:2000 diluted antibody.
For experiment [8], the target named is cdH5-0, crossbeta H5 (A/Vietnam/1203/04) after centrifugation (influenza virus H5N1 strain A/Vietnam/1203/04). Kind of experiment: ELISA, immobilized H5 form; normalized to cdH5-0.
Experiment [9] deals with fdH5-0, ultrafiltrated dH5-0 (H5 of A/Vietnam/1203/04) (influenza virus H5N1 strain A/Vietnam/1203/04). Kind of experiment: ELISA, immobilized H5 form; normalized to cdH5-0.
Experiment [10] has as its target misfolded dH5-I (H5 of A/Vietnam/1203/04, heat cycling at pH 7) (influenza virus H5N1 strain A/Vietnam/1203/04). Nature of the experiment: ELISA, immobilized H5 form; normalized to cdH5-0.
The target in experiment [11] is misfolded dH5-II (H5 of A/Vietnam/1203/04, heat cycling at pH 2) (influenza virus H5N1 strain A/Vietnam/1203/04). Kind of experiment: ELISA, immobilized H5 form; normalized to cdH5-0.
Experiment [12] concerns the target misfolded dH5-III (H5 of A/Vietnam/1203/04, prolonged incubation at 5 C below the melting temperature) (influenza virus H5N1 strain A/Vietnam/1203/04). Nature of the experiment: ELISA, immobilized H5 form; normalized to cdH5-0.
Experiment [13] deals with crossbeta H5-0 (dH5-0), H5 of H5N1 strain A/Vietnam/1203/04 stock as supplied by Protein Sciences (influenza virus H5N1 strain A/Vietnam/1203/04). Kind of experiment: ELISA, immobilized H5 form; normalized to cdH5-0; average of two measurements.
Experiment [14] concerns the target cdH5-0, crossbeta H5 (A/Vietnam/1203/04) after centrifugation (influenza virus H5N1 strain A/Vietnam/1203/04). Kind of experiment: ELISA, immobilized H5 form, tPA with excess epsilon-amino caproic acid.
The target of experiment [15] is crossbeta H5-0 (dH5-0), H5 of H5N1 strain A/Vietnam/1203/04 stock as supplied by Protein Sciences (influenza virus H5N1 strain A/Vietnam/1203/04). The experiment is described as above.
Experiment [16] deals with fdH5-0, ultrafiltrated dH5-0 (H5 of A/Vietnam/1203/04) (influenza virus H5N1 strain A/Vietnam/1203/04). The experiment is described as above.
Experiment [17] has as its target misfolded dH5-II (H5 of A/Vietnam/1203/04, heat cycling at pH 2) (influenza virus H5N1 strain A/Vietnam/1203/04). The description is as above.

In general, Kd refers to the concentration at which binding is half-saturated. A higher Kd goes with lower affinity.

With “Rockland anti-H5 A/VN/1203/04 mouse monoclonal antibody, catalogue number 200-301-975”, the relative affinity kD in experiment [1] was determined as 100 a.u; in experiment [2] it was 102 a.u; in [3], 103 a.u; in experiment [4], 47 a.u; in experiment [5] it was 79 a.u; in experiment [6] it was 78 a.u. The substance further yielded an ELISA signal at 1:2000 antibody dilution in experiment [7] of 1.5.

Take “Rockland anti-H5 A/VN/1203/04 mouse monoclonal antibody, catalogue number 200-301-976”: the relative affinity kD in experiment [1] came to 100 a.u; in [2] it was 88 a.u; in [3], 105 a.u; in experiment [4] it was 0 a.u; in experiment [5], 132 a.u; in experiment [6], 127 a.u.

“Rockland anti-H5 A/VN/1203/04 mouse monoclonal antibody, catalogue number 200-301-977”: the relative affinity kD in [1] is 100 a.u; in experiment [2], 98 a.u; in experiment [3], 93 a.u; in experiment [4] it was 0 a.u; in [5], 0 a.u; in experiment [6] it was 35 a.u.

For “Rockland anti-H5 A/VN/1203/04 mouse monoclonal antibody, catalogue number 200-301-978”, the relative affinity kD in experiment [1] was 100 a.u; in [2] it was 85 a.u; in experiment [3], 107 a.u; in experiment [4], 115 a.u; in [5], 31 a.u; in experiment [6], 112 a.u.

“Rockland anti-H5 A/VN/1203/04 mouse monoclonal antibody, catalogue number 200-301-979”: the relative affinity kD in [1] stood at 100 a.u; in experiment [2] it was 103 a.u; in experiment [3], 97 a.u; in [4], 125 a.u; in experiment [5] it was 83 a.u; in experiment [6], 126 a.u.

With “fourth and fifth finger domain of fibronectin (Fn F4-5) with C-terminal FLAG-tag (from UniProt P02751 184-273)”, the Normalized affinity, kD (%) in [8] is 100%; in [9], 69%; in experiment [10] it was 0%; in [11], 88%; in [12], 6%; in experiment [13], 103%.

Regarding “tissue type plasminogen activator (tPA; Actilyse, Boehringer-Ingelheim) (from UniProt P00750 36-562) (enzyme)”, the dissociation constant (Kd) came to 102 nM in [14], 96 nM in experiment [15], 342 nM in [16] and 19 nM in experiment [17].
